Kd data for 1 molecule are collected here from publication PMC4561382, “Aven recognition of RNA G-quadruplexes regulates translation of the mixed lineage leukemia protooncogenes”.

For one data set, the target named is T1, Aven DiRGG peptide (human, UniProt Q9NQS1).
T1 chain: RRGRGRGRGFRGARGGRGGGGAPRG
The data set can be described thus: fluorescence plate binding (immobilized peptide); K+-folded RNA; joint range (173-200 in author response); RNA folded in 10 mM Tris-acetate pH 7.7, 200 mM K-acetate, 5 mM Mg-acetate (75 C 10 min, 21 C 5 min); peptide assay 1 h at room temperature, washes in this buffer; pull-down 100 nM RNA in cell lysate with 2 mg/ml heparin, 1 h on ice, beads 30 min at 4 C. Conditions: tags: N-terminal biotin; G4.

Another data set addresses T2, Aven TriRG peptide (human, UniProt Q9NQS1).
T2 chain: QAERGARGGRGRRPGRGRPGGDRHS
The data set can be described thus: fluorescence plate binding (immobilized peptide); K+-folded RNA; range given jointly for TriRG and TriRGme; RNA folded in 10 mM Tris-acetate pH 7.7, 200 mM K-acetate, 5 mM Mg-acetate (75 C 10 min, 21 C 5 min); peptide assay 1 h at room temperature, washes in this buffer; pull-down 100 nM RNA in cell lysate with 2 mg/ml heparin, 1 h on ice, beads 30 min at 4 C. To be noted: tags: N-terminal biotin; G4.

In the case of GCUGCGGUGUGGAAGGAGUGGUCGGGUUGCGCAGCG (structured_RNA) [sc1 G4 (fluorescein)], the Kd – broadly, the free concentration of one partner at which half of the binding sites on the other are occupied at equilibrium, for simple one-to-one binding – with Aven DiRGG peptide is roughly 187 nM; with Aven TriRG peptide, roughly 84.8 nM.
